Measured values as given in paper PMC8042219, “Expression of Novel L-Leucine Dehydrogenase and High-Level Production of L-Tert-Leucine Catalyzed by Engineered Escherichia coli” (Frontiers in Bioengineering and Biotechnology, 2021).

Experiments:
TbLeuDH = molecular target: T1, TbLeuDH (Staphylospora marina, UniProt Z9JLC0NN60); assay: NADH absorbance at […] nm, specific activity; assay type: biochemical; details: reductive amination, 2 mM TMP, 0.1 mM NADH, 500 mM NH4Cl-NH3 buffer pH 9.5, 30 °C
T1 sequence (Z9JLC0NN60 1-365): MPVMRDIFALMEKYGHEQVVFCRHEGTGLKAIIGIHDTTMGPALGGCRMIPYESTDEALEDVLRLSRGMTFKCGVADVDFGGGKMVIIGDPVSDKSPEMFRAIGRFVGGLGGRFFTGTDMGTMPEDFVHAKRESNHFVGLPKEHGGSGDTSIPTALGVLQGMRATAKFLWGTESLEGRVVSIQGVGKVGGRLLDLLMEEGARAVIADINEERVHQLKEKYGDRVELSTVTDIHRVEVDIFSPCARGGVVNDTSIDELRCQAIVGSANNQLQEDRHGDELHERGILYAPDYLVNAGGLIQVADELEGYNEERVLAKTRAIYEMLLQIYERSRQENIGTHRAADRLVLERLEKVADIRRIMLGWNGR

BbLeuDH = molecular target: T2, BbLeuDH (Bdellovibrio bacteriovorus, UniProt A0A1Z3N8C0); assay: NADH absorbance at […] nm, specific activity; assay type: biochemical; details: reductive amination, 2 mM TMP, 0.1 mM NADH, 500 mM NH4Cl-NH3 buffer pH 9.5, 30 °C
T2 construct: gene B9G79_08965
T2 sequence (A0A1Z3N8C0 1-376): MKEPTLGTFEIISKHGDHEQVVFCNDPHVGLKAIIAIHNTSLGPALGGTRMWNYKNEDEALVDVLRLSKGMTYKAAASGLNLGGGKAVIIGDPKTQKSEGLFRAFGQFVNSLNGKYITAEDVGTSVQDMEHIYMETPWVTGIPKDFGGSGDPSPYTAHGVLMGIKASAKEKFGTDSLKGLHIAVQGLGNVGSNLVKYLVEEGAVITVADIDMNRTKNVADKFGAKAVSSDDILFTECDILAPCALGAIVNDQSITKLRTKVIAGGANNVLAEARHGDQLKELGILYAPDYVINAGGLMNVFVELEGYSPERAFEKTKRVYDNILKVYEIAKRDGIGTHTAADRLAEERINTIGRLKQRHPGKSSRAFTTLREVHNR

CsLeuDH = molecular target: T3, CsLeuDH (Caldanaerobacter subterraneus, UniProt U5CQF4); assay: NADH absorbance at […] nm, specific activity; assay type: biochemical; details: reductive amination, 2 mM TMP, 0.1 mM NADH, 500 mM NH4Cl-NH3 buffer pH 9.5, 30 °C
T3 construct: gene O163_07585
T3 sequence (U5CQF4 1-355): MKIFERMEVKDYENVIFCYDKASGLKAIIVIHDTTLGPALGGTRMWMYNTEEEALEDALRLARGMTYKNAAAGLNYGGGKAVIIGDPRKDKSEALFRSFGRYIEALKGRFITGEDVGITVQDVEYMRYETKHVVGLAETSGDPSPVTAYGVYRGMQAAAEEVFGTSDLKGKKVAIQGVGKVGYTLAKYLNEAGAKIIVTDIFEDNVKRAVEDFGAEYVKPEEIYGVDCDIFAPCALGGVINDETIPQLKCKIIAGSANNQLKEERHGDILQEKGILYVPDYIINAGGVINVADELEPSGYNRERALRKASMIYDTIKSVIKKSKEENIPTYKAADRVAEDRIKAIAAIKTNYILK

purified protein [1] = substrate: CC(C)C[C@H](N)C(=O)O; assay: purified protein; assay type: biochemical, Planifilum fimeticola; details: oxidative deamination, L-leucine varied 0.1-3 mM, 1 mM NAD+
purified protein [2] = substrate: NC(=O)C1=CN([C@@H]2O[C@H](COP(=O)(O)OP(=O)(O)OC[C@H]3O[C@@H](n4cnc5c(N)ncnc54)[C@H](O)[C@@H]3O)[C@@H](O)[C@H]2O)C=CC1; assay: purified protein; assay type: biochemical, Planifilum fimeticola; details: reductive amination, NADH varied 0.05-0.35 mM, 40 mM TMP; standard assay 500 mM NH4Cl-NH3 buffer pH 9.5, 30 °C; pH 9.5; 30.0 °C; varied: cofactor
purified protein [3] = substrate: CC(C)(C)C(=O)C(=O)O; assay: purified protein; assay type: biochemical, Planifilum fimeticola; details: reductive amination, TMP varied 1-20 mM, 0.3 mM NADH; standard assay 500 mM NH4Cl-NH3 buffer pH 9.5, 30 °C; pH 9.5; 30.0 °C
purified protein [4] = substrate: NC(=O)c1ccc[n+]([C@@H]2O[C@H](COP(=O)(O)OP(=O)(O)OC[C@H]3O[C@@H](n4cnc5c(N)ncnc54)[C@H](O)[C@@H]3O)[C@@H](O)[C@H]2O)c1; assay: purified protein; assay type: biochemical, Planifilum fimeticola; details: oxidative deamination, NAD+ varied 0.1-4 mM, 4 mM L-leucine; varied: cofactor

Molecule | NADH absorbance at 340 nm, specific activity (TbLeuDH) | NADH absorbance at 340 nm, specific activity (BbLeuDH) | NADH absorbance at 340 nm, specific activity (CsLeuDH) | Km (purified protein [1]) [µM] | Vmax (purified protein [1]) [µmol/min/mg] | kcat (purified protein [1]) [s⁻¹] | kcat/Km (purified protein [1]) [M⁻¹ s⁻¹] | Km (purified protein [2]) [µM] | Vmax (purified protein [2]) [µmol/min/mg] | kcat (purified protein [2]) [s⁻¹] | kcat/Km (purified protein [2]) [M⁻¹ s⁻¹] | Km (purified protein [3]) [µM] | Vmax (purified protein [3]) [µmol/min/mg] | kcat (purified protein [3]) [s⁻¹] | kcat/Km (purified protein [3]) [M⁻¹ s⁻¹] | Km (purified protein [4]) [µM] | Vmax (purified protein [4]) [µmol/min/mg] | kcat (purified protein [4]) [s⁻¹] | kcat/Km (purified protein [4]) [M⁻¹ s⁻¹]
CC(C)(C)C(=O)C(=O)O [Trimethylpyruvate] | All four soluble leucine dehydrogenases have catalytic activity for TMP | All four soluble leucine dehydrogenases have catalytic activity for TMP | All four soluble leucine dehydrogenases have catalytic activity for TMP |  |  |  |  |  |  |  |  |  |  |  |  |  |  |  | 
PfLeuDH (Planifilum fimeticola) (protein) MKWFDYMERYDYEQLIFCQDKNSGLKAIIAIHDTTLGPALGGVRMWKYDSEEEAIVDALRLARGMTYKAAAAGLNLGGGKTVIIGDPRKDKNEEMFRALGRFIQGLNGRYITAEDVGTTEEDMDIIHQETRFVTGVSPAFGSSGNPSPVTAYGVYRGMKAAAKIAFGSDSLEGKTVAVQGVGSVAYHLCKHLHEEGARLIVTDIVRENVERAVRDFGAESVAPDKIYDVECDIFSPCALGAIINDETLPRLKCRVVAGSANNQLKEERHGDRLEELGIIYVPDYVINAGGLINVADELFGYNRERAMKKVETIYDNVLRVFEIAKRDGIPSYKAADRMAEERIESLTRSRSTFLRNERNVLNMV |  |  |  | 100 | 3.49 | 2.33 | 23300 | 60 | 9.09 | 6.06 | 101000 | 3080 | 58.6 | 39.1 | 12700 | 110 | 2.72 | 1.81 | 16400
